The experiment has as its target T1, Bovine serum albumin (bovine, UniProt P02769 25-607).
T1 construct: Serum albumin, bovine (BSA); Unlabelled BSA used as analyte in SPR; also called BSA; source: bought: Sigma-Aldrich
Kind of experiment: SPR; BIAcore 3000; histidine-tagged SPARC immobilised on Sensor NTA chip to about 100 RU; BSA as analyte, room temperature, 20 ul/minute, 5 minutes association, 5 minutes dissociation; global Langmuir fitting. The note with it: both partners purified. In general terms: SPR reads the build-up and loss of mass on a sensor chip optically.

The source of these data is PMC5363614, “Secreted protein acidic and rich in cysteine (SPARC) induces lipotoxicity in neuroblastoma by regulating transport of albumin complexed with fatty acids” (Oncotarget, 2016).

T1 sequence (P02769 25-607): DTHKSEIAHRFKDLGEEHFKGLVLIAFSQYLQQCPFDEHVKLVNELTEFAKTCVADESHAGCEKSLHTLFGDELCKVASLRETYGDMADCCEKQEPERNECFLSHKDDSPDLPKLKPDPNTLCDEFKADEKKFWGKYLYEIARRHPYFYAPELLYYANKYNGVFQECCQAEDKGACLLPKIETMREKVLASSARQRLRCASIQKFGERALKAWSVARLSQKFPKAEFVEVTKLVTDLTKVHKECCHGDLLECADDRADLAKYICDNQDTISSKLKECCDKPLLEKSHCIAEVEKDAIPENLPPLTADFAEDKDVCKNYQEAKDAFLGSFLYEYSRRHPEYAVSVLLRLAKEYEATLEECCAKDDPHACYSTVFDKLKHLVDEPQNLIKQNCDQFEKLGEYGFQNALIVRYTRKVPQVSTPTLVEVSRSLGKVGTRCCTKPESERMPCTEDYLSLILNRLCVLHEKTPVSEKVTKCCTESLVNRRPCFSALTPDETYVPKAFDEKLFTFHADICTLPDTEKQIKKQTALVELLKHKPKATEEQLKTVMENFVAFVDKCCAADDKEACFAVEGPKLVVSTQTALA

B1: Recombinant human SPARC (secreted protein acidic and rich in cysteine), histidine-tagged (natural protein, UniProt P09486 18-303, looked up)
chain: APQQEALPDETEVVEETVAEVTEVSVGANPVQVEVGEFDDGAEETEEEVVAENPCQNHHCKHGKVCELDENNTPMCVCQDPTSCPAPIGEFEKVCSNDNKTFDSSCHFFATKCTLEGTKKGHKLHLDYIGPCKYIPPCLDSELTEFPLRMRDWLKNVLVTLYERDEDNNLLTEKQKLRVKKIHENEKRLEAGDHPVELLARDFEKNYNMYIFPVHWQFGQLDQHPIDGYLSHTELAPLRAPLIPMEHCTTRFFETCDLDNDKYIALDEWAGCFGIKQKDIDKDLVI
notes: Secreted protein acidic and rich in cysteine (SPARC), human, recombinant; The histidine tag is named for the SPR experiment; also called rhSPARC; histidine-tagged recombinant SPARC; source: HEK293 cells transfected with SPARC, serum-free conditioned media; purified as described [25]
In general, Kd refers to the constant that tells how readily two partners part at equilibrium. A high value points to weaker binding. B1 showed a Kd of 18.9 µM.
